In US11274126B2, “pH-sensitive cyclic peptides” (University of Rhode Island Board of Trustees, priority 2016, dated 2022):

Columns and labels:
HeLa cells [1] = conditions: at the concentrations used, treatment of 2-4 h; previous report; cited from earlier work
4T1 breast tumors = assay: Ex vivo fluorescence imaging of tumor and organs after IV Alexa546-peptides; type: in vivo, mice; conditions: after IV administration
Description: 4T1 breast tumors were established by subcutaneous injection of 4T1 cells (8×10^5 cells/0.1 mL/flank) in the right flank of adult female BALB/c mice (about 19-22 g weight) obtained from Harlan Laboratories. When tumors reached about 6 mm in diameter single tail vein injections of 100 μl of 40 μM Alexa546-peptides were performed. […] At 4 h post-injection euthanization and necropsy was performed followed by ex vivo imaging of tumor, kidneys, liver, lungs and muscle. Mean fluorescence intensity of tumor and organs was calculated using Kodak software.

HeLa cells [2] = assay: Fluorescent microscopy with Trypan Blue quenching; type: cell-based, Human; conditions: 5 μM, 30 min at pH 6.2 versus 7.4
Description: HeLa cells (8,000 cells per dish) were seeded in the center of a 35-mm dish with a 10-mm glass-bottom window coated with collagen (MatTek Corp). Next day cells were incubated with 5 μM of FITC-labeled c[E4W5C] (SEQ ID NO: 5) peptide for 30 min in DMEM medium without FBS at pH 7.4 or 6.2. Cells were washed 5 times at pH 7.4 and 0.4% Trypan Blue was added for 5 min ( 1/10 of the total volume). Fluorescent images were acquired with a Retiga CCD camera (Qimaging) mounted to an inverted Olympus IX71 microscope (Olympus America, Inc.).

[3] = Steady-state tryptophan fluorescence of peptides in buffer and with POPC liposomes; type: physicochemical; conditions: for S, normalized area under the spectra, Pep-PC, pH3: POPC liposomes pH 3; for S, normalized area under the spectra, Pep-PC, pH3 / S, normalized area under the spectra, Pep-PC, pH8: normalized to peptide at pH 8 without POPC; for S, normalized area under the spectra, Pep-PC, pH8: POPC liposomes pH 8; for λmax, Pep-PC, pH3: in the presence of POPC liposomes at pH 3; for λmax, Pep-PC, pH3 / λmax, Pep-PC, pH8 / λmax, maximum position of the fluorescence spectrum, Pep, pH8: excitation 280 nm; for λmax, Pep-PC, pH8: in the presence of POPC liposomes at pH 8; for λmax, maximum position of the fluorescence spectrum, Pep, pH8: peptide in phosphate buffer pH 8, no liposomes
Description: Liposomes such as Large Unilamellar Vesicles (LUVs) were prepared by extrusion. POPC, 1-palmitoyl-2-oleoyl-sn-glycero-3-phosphocholine (Avanti Polar Lipids), or a mixture of POPC with 0.5% of 18:1 NBD-PE, 1,2-dioleoyl-sn-glycero-3-phosphoethanolamine-N-7-nitro-2-1,3-benzoxadiazol-4-yl ammonium salt (Avanti Polar Lipids) were dissolved in chloroform, desolvated on a rotary evaporator, and dried under high vacuum for several hours. The phospholipid film was then rehydrated in 10 mM phosphate buffer pH 8.0, vortexed until the lipid bilayer was completely dissolved, and repeatedly (15-21 times) extruded through the membranes with 50 nm pore sizes to obtain LUVs.
Freshly prepared peptides and POPC vesicles were mixed to have 5 μM of a peptide and 1.25 mM of lipids in the final solution. Steady-state fluorescence measurements were carried out on a PC1 spectrofluorometer (ISS, Inc.) under temperature control at 25° C. Tryptophan fluorescence was excited at 280 nm (there is no Phe or Tyr in the peptides) and recorded with the excitation and emission slits set at 1 nm. The polarizers in the excitation and emission paths were set at the “magic” angle (54.7o from the vertical orientation) and vertically (0°), respectively. Steady state CD measurements were carried out in MOS 450 spectropolarimeter (Bio-Logic, Inc.) with the same concentrations of peptide and lipids as it were used in fluorescence measurements.

[4] = Dual quenching (acrylamide / 10-DN); type: physicochemical; conditions: POPC liposomes; for percentage of fluorescence quenching, Pep-PC + 10-DN pH3 / percentage of fluorescence quenching, Pep-PC + AC pH3: pH 3; for percentage of fluorescence quenching, Pep-PC + 10-DN pH8 / percentage of fluorescence quenching, Pep-PC + AC pH8: pH 8; for percentage of fluorescence quenching, Pep-PC + AC pH3 / percentage of fluorescence quenching, Pep-PC + AC pH8: acrylamide
Description: POPC liposomes without and with 10% of the lipids replaced by 10-doxylnonadecane (10-DN) (Avanti Polar Lipids) were prepared in 10 mM citrate-phosphate buffer pH 8.0. Peptides and POPC liposomes were mixed to generate final concentrations of 7 μM peptide and 2.1 mM POPC without and with 10-DN. […] To the samples of POPC liposomes containing no 10-DN, acrylamide (Sigma-Aldrich) was added to have a final concentration of 235 mM in solution. Concentration of peptides in all samples was kept constant. To observe quenching of tryptophan fluorescence by 10-DN or acrylamide, the tryptophan fluorescence was recorded as described above. The appropriate POPC blanks were measured and subtracted from the measured spectra before analysis. The percentage of quenching was calculated.
To establish localization of the peptides within a lipid bilayer of the membrane, a dual quenching assay (Caputo G A & London E (2003) Biochemistry 42(11):3265-3274) was used (FIG. 6 and Table 8). Effective quenching of fluorescence by acrylamide would occur only for tryptophan residues exposed to polar parts of outer or inner leaflets of the bilayer. At the same time, tryptophan residues located in the middle of a membrane would be effectively quenched by 10-DN. The result of the dual quenching assay allows the determination of whether tryptophan residues are located in the middle of a membrane or close to the polar headgroups of the bilayer. […] Therefore, FRET assays were also performed (McIntyre J C & Sleight R G (1991) Biochemistry 30(51):11819-11827; Clausell et al. (2006) J Phys Chem B 110(9):4465-4471) (FIG. 7). First, POPC liposomes symmetrically-labeled with NBD dye were prepared. Then, membrane-impermeable dithionite was used to modify chemically and quench the fluorescence of NBD at the outer leaflet of the bilayer followed by removal of dithionite by gel filtration. As a result, asymmetrically-labeled liposomes with NBD only at the inner leaflet were obtained. The c[E4W5C] […] All other peptides are located at the outer leaflet of the bilayer at pH 8. Among c[(WE)4WC] (SEQ ID NO: 2), c[(WE)5WC] (SEQ ID NO: 3), and c[(WE)3WC] (SEQ ID NO: 1) peptides, the peptide with smallest cycle, c[(WE)3WC]

HeLa cells [5] = type: cell-based, Human; conditions: up to 4 μM, 3 h at pH 7.4 or 6.0, viability at 48 h
Description: HeLa cells were loaded in the wells of 96-well plates (5,000 cells per well) and incubated overnight. Growth medium was replaced with the medium without FBS pH 6.0 or pH 7.4 containing increasing amounts of peptide-amanitin construct (0.5, 1, 2, and 4 μM). The construct was removed after 3 h. After 48 h of incubation in standard growth medium, a colorimetric reagent (CellTiter 96 AQueous One Solution Assay, Promega) was added for 1 h followed by measuring absorbance at 490 nm to assess cell viability. All samples were prepared in triplicate.

Row | Compound | S, normalized area under the spectra, Pep-PC, pH3 [3] | S, normalized area under the spectra, Pep-PC, pH8 [3] | λmax, Pep-PC, pH3 [3] | λmax, Pep-PC, pH8 [3] | λmax, maximum position of the fluorescence spectrum, Pep, pH8 [3] | percentage of fluorescence quenching, Pep-PC + 10-DN pH3 [4] | percentage of fluorescence quenching, Pep-PC + 10-DN pH8 [4] | percentage of fluorescence quenching, Pep-PC + AC pH3 [4] | further results
1 | CC[C@H](C)[C@@H]1NC(=O)CNC(=O)[C@@H]2Cc3c([nH]c4cc(O)ccc34)[S+]([O-])C[C@@H](NC(=O)CNC1=O)C(=O)N[C@@H](CC(N)=O)C(=O)N1C[C@H](O)C[C@H]1C(=O)N[C@@H]([C@@H](C)[C@@H](O)CO)C(=O)N2 (stereo partly drawn) [amanitin, alpha-amanitin] |  |  |  |  |  |  |  |  | cell death by amanitin alone (HeLa cells [1]): does not induce cell death
2 | N=C(N)NCCC[C@@H]1NC(=O)[C@H](CS)NC(=O)[C@H](Cc2c[nH]c3ccccc23)NC(=O)[C@H](Cc2c[nH]c3ccccc23)NC(=O)[C@H](Cc2c[nH]c3ccccc23)NC(=O)[C@H](Cc2c[nH]c3ccccc23)NC(=O)[C@H](Cc2c[nH]c3ccccc23)NC(=O)[C@H](CCCNC(=N)N)NC(=O)[C@H](CCCNC(=N)N)NC(=O)[C@H](CCCNC(=N)N)NC1=O [c[R4W5C]] |  |  |  |  |  |  |  |  | accumulation in tumor and other organs (4T1 breast tumors): very minimal
3 | FITC-labeled peptide: c[E4W5C] peptide conjugated with Fluorescein-5-maleimide (cyclo(EEEEWWWWWC); also: conjugated with fluorescein-5-maleimide, site not given here) |  |  |  |  |  |  |  |  | fluorescent signal of cells after Trypan Blue quenching, low pH compared to normal pH (HeLa cells [2]): higher level of the fluorescent signal
4 | c[(WE)3WC] (WEWEWEWC; cyclic) | 1.7 ± 0.3 | 0.9 ± 0.1 | 341.7 ± 0.2 nm | 349.1 ± 0.7 nm | 351.0 ± 0.2 nm | 47% | 6% | 63% | percentage of fluorescence quenching, Pep-PC + AC pH8 [4]: 83%
5 | c[(WE)5WC] (WEWEWEWEWEWC; cyclic) | 2.1 ± 0.3 | 1.5 ± 0.3 | 341.2 ± 0.4 nm | 346.7 ± 1.2 nm | 350.3 ± 0.2 nm | 40% | 1.3% | 68% | 
6 | c[E4W5C]-GMBS-amanitin (cyclo(EEEEWWWWWC); also: GMBS-linked amanitin conjugate) |  |  |  |  |  |  |  |  | cell death / cytotoxic effect of peptide-amanitin construct (HeLa cells [5]): reduced significantly at both pHs
7 | l(CW(EW)4) (CWEWEWEWEW) | 1.6 ± 0.4 | 2.3 ± 0.4 | 339.8 ± 0.6 nm | 346.6 ± 0.7 nm | 353.0 ± 0.7 nm | 31% | 20% | 56% | percentage of fluorescence quenching, Pep-PC + AC pH8 [4]: 81%
